Experimental data published in US20260242504A1 (CHIOME BIOSCIENCE, published 2026).

Experiments:
[1] = target: T1, recombinant human 5T4 protein (5T4/His) (human, UniProt Q13641 32-355); assay: ELISA, immobilized recombinant human 5T4, 0-500 nM (N=2)
T1 construct: also called Human 5T4/His; recombinant 5T4; not shown: His tag of the bought protein
T1 sequence: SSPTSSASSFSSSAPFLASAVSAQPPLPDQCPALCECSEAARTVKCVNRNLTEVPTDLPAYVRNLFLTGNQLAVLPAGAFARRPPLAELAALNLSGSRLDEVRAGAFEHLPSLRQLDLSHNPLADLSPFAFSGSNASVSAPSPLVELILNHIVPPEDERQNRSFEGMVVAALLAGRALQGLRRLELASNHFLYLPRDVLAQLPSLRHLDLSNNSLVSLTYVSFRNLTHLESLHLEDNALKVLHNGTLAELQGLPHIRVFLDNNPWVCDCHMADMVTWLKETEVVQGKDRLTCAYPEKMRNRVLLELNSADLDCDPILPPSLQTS
Procedure: The binding affinity of purified 53L10-M13 to 5T4 antigen was examined by ELISA (FIG. 14). A recombinant human 5T4 protein (ACRO Biosystems) was immobilized in a 96-well plate using the same method as that performed in FIG. 2 (Example 1). […] The curve showing the binding affinity of 53L10-M13 to 5T4 overlapped with the curve showing the binding affinity of 53L10 (●) to 5T4. The EC₅₀ values were 0.58 nM for 53L10-M13 and 0.53 nM for 53L10 (FIG. 14B).

[2] = target: T2, recombinant human PD-L1/Fc (human, UniProt Q9NZQ7 19-239, biotinylated in the competitive ELISA (sites not given)); assay: ELISA, immobilized recombinant human PD-L1/Fc, 0-500 nM (N=2)
T2 construct: Bought from R&D Systems; also called recombinant PD-L1 protein; biotinylated PD-L1 ligand; not shown: Fc part of the bought fusion
T2 sequence (Q9NZQ7 19-239 limits assumed): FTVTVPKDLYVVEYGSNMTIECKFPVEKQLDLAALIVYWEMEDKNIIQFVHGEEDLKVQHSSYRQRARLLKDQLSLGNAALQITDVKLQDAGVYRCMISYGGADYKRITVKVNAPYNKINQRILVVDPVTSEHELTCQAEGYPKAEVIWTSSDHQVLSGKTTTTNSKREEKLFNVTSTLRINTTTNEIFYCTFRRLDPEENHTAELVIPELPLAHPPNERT
Procedure: The binding affinity of purified 53L10-M13 to recombinant PD-L1 protein was examined by ELISA (FIG. 16). A recombinant human PD-L1/Fc protein (R&D Biosystems) was immobilized in a 96-well plate using the same method as that performed in Example 4. According to the procedure described in “Materials and Methods” later, the binding assay of 53L10-M13 and 53L10 to human PD-L1 protein was performed at increasing concentrations (0-500 nM). […] The curve showing the binding affinity of 53L10-M13 to PD-L1 overlapped with the curve showing the binding affinity of 53L10 (●) to PD-L1.

[3] = target: T3, 5T4 on 5T4-expressing CHO-K1 cells (UniProt Q13641 32-420); assay: cell-based or functional assay
T3 sequence (looked up): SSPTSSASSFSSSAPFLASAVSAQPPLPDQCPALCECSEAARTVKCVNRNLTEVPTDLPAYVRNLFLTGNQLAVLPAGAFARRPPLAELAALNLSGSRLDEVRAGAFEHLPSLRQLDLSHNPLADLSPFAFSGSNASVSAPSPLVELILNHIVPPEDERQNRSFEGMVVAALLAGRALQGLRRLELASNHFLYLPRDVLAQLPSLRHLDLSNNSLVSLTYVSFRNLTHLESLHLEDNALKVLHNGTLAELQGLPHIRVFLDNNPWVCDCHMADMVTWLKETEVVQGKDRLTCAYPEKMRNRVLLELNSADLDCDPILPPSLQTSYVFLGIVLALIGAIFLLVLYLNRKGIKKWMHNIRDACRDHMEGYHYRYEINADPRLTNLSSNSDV

[4] = target: T1, recombinant human 5T4 protein (5T4/His); assay: ELISA, immobilized recombinant human 5T4, tribody 0-500 nM
Procedure: A recombinant human 5T4 protein (AMSBio) was immobilized onto 96-well ELISA plates. The binding assay of Tb535H and purified novel tribodies was performed by testing at increasing concentrations (0-500 nM) were carried out according to the procedure described in Materials and Methods. […] The Tb535H has two 5T4 binding arms derived from Fab and scFv, and the novel 53X tribody constructed has a monovalent 5T4 binding arm derived from a single Fab.

[5] = target: T4, recombinant human PD-1/Fc (human, UniProt Q15116 25-167); assay: ELISA, immobilized recombinant human PD-1 (per the legend of FIG. 4B; the sentence prints PD-L1)
T4 construct: Bought from R&D Systems; also called recombinant PD-1 protein; immobilized PD-1 receptor; not shown: Fc part of the bought fusion
T4 sequence (Q15116 25-167 limits assumed): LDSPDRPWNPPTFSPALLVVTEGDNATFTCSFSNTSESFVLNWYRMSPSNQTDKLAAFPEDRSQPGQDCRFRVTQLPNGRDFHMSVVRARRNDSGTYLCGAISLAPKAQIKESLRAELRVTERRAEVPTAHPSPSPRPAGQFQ
Text: To verify whether the novel tribodies including a binding arm to PD-L1 or PD-1 have a satisfactory binding affinity for their target recombinant proteins, we perfomed ELISA assays on immobilized PD-1 or PD-L1 proteins (FIG. 4).

B1: 53L10-M13 (other)
chain 1: QVQLVQSGAEVKKPGASVKVSCKASGYSFTSYYMHWVKQSPGQGLEWIGRINPNNGVTLYNQKFKDRVTMTRDTSISTAYMELSRLRSDDTAVYYCARSTMITNYVMDYWGQGTLVTVSSASTKGPSVFPLAPSSKSTSGGTAALGCLVKDYFPEPVTVSWNSGALTSGVHTFPAVLQSSGLYSLSSVVTVPSSSLGTQTYICNVNHKPSNTKVDKKVEPKSCDKTHTGPGGGSPGQVQLVQSGAELKKPGASVKVSCKASGYTFTRYTMHWVRQAPGQCLEWMGYINPSRGYTNYNQKFKDKATLTADKSTSTAYMELRSLRSDDTAVYYCARYYDDHYSLDYWGQGTLVTVSSASGGGGSGGGGSGGGGSAGDIQLTQSPSILSASVGDRVTITCRASSSVSYMNWYQQKPGKAPKRWIYDTSKVASGVPYRFSGSGSGTEYTLTISSMQPEDFATYYCQQWSSNPLTFGCGTKVEIKSG
chain 2: not shown
notes: also called 53L10 mutant; 53L0-M13
- EC50 [1]: 0.58 nM
- EC50 [2]: 36.9 nM
- EC50 of luciferase activity, T cell activation bioassay (NFAT) with CHO-5T4 target cells [3]: 0.016 nM

B2: 53D tribody (other)
chain 1: B1 chain 1
chain 2: not shown
notes: Trispecific tribody, a heterodimer; H chain derivative: VH(5T4)-CH1-scFv(hOKT3); L chain derivative: VL(5T4)-CL-scFv(PD-1.1); also called 5T4xCD3xPD-1
- binding result [4]: binds
- binding result [5]: binds

B3: 53G tribody (other)
chain 1: B1 chain 1
chain 2: not shown
notes: Trispecific tribody, a heterodimer; L chain derivative: VL(5T4)-CL-scFv(LAG3.1); also called 5T4xCD3xLAG3
- binding result [4]: binds

B4: 53P tribody (other)
chain 1: B1 chain 1
chain 2: not shown
notes: also called 5T4xCD3xisotype control
- binding result [4]: binds
